Measurements reported in IntAct's records for PubMed 11711533.

B1: Proline-serine-threonine phosphatase-interacting protein 1 (Mus musculus), P97814 (parent)
chain: MMAQLQFRDAFWCRDFTAHTGYEVLLQRLLDGRKMCKDVEELLRQRAQAEERYGKELVQIARKAGGQTEMNSLRTSFDSLKQQTENVGSAHIQLALALREELRSLEEFRERQKEQRKKYEAIMDRVQKSKLSLYKKTMESKKAYDQKCRDADDAEQAFERVSANGHQKQVEKSQNKAKQCKESATEAERVYRQNIEQLERARTEWEQEHRTTCEAFQLQEFDRLTILRNALWVHCNQLSMQCVKDDELYEEVRLTLEGCDVEGDINGFIQSKSTGREPPAPVPYQNYYDREVTPLIGSPSIQPSCGVIKRFSGLLHGSPKTTPSAPAASTETLTPTPERNELVYASIEVQATQGNLNSSAQDYRALYDYTAQNSDELDISAGDILAVILEGEDGWWTVERNGQRGFVPGSYLEKL
partner: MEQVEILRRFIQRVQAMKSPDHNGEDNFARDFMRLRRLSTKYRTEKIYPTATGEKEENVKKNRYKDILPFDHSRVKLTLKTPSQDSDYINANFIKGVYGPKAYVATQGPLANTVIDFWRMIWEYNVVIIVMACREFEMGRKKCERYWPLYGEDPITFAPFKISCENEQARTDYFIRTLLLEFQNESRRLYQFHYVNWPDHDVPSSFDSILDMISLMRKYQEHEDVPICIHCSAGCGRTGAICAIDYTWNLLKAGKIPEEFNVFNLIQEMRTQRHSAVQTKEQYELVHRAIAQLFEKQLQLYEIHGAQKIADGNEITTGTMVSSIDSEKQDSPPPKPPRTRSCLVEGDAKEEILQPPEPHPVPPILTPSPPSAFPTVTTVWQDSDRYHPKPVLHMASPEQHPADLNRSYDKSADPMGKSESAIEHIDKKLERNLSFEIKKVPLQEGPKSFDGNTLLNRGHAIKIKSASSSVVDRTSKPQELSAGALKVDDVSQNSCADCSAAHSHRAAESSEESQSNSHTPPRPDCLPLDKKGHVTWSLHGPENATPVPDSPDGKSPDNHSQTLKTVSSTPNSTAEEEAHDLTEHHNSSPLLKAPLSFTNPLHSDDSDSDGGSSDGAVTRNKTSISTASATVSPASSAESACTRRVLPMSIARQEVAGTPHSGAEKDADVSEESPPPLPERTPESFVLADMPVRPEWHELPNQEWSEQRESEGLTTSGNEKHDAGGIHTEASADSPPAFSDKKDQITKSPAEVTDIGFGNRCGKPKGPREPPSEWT
B2: Tyrosine-protein phosphatase non-receptor type 12 (Mus musculus), P35831 (parent)
chain: B1 partner

Variants of: B1
Conditions: with ptn12_mouse Ptpn12, P35831

Row | effect of a mutation on the interaction | Variant
1 | disrupting interaction | Y344F

Variants of: B2
Conditions: with ppip1_mouse Pstpip1, P97814

Row | effect of a mutation on the interaction | Variant
2 | decreasing interaction | C231S
